Data taken from patent US20130273053.

What was measured:
ST-pro-factor D-His = ST-pro-factor D-His (UniProt P00746)
purified plasma factor B = purified plasma factor B (UniProt P00751)
purified plasma factor B, sequence (P00751 26-764): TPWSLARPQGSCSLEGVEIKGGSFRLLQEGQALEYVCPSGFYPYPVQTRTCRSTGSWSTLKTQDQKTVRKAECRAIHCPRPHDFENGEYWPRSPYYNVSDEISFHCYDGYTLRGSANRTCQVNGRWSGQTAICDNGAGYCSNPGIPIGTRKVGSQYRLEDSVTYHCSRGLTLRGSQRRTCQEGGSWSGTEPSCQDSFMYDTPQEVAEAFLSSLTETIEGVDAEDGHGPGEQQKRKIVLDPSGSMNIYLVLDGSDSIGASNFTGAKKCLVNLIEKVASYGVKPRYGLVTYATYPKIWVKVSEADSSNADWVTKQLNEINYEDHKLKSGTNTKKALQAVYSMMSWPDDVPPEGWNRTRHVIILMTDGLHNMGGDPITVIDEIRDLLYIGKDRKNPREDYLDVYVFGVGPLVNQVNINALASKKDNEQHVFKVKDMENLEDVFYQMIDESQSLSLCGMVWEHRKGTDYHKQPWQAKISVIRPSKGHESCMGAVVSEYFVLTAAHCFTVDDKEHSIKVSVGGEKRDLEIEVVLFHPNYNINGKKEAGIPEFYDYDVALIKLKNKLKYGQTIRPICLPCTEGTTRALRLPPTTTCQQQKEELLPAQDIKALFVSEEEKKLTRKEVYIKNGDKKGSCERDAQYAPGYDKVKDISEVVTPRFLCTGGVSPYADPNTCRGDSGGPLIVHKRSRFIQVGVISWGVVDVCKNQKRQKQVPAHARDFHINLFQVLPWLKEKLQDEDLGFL

full length recombinant human MASP-3 (active), sequence (chain): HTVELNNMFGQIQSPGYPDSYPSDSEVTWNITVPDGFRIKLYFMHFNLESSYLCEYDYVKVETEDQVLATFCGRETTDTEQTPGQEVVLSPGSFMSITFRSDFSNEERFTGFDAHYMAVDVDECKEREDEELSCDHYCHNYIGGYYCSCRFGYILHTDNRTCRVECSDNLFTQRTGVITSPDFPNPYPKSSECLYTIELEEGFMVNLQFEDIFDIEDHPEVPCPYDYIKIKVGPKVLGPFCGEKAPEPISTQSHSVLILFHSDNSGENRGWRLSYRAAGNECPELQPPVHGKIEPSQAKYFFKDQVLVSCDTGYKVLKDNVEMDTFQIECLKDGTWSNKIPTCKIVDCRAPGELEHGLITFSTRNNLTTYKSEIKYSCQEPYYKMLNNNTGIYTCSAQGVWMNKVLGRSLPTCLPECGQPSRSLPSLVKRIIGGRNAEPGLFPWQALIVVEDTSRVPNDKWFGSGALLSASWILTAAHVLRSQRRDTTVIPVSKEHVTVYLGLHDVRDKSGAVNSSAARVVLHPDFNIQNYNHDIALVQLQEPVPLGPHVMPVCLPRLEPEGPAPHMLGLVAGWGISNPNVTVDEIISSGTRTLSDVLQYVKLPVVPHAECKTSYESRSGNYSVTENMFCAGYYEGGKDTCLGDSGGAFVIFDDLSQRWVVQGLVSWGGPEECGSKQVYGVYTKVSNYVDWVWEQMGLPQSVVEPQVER
ST-pro-factor D-His, sequence (P00746 21-253): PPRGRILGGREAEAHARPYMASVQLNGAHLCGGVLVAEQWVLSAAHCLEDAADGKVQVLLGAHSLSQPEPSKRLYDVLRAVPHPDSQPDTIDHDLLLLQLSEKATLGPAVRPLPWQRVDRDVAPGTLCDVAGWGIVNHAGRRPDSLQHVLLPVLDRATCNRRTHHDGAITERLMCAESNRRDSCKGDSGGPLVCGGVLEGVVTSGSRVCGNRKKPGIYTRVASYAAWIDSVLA

Substance: full length recombinant human MASP-3 (active)
- cleavage of pro-factor D substrate, Western blot (ST-pro-factor D-His): only full length MASP-3 (lane 2) and the MASP-1 CCP1-CCP2-SP) fragment (lane 5) cleaved ST-pro-factor D-His6
- cleavage of pro-factor D to factor D, Western blot, no mAb (ST-pro-factor D-His): MASP-3 cleaves approximately 50% of pro-factor D into factor D
- factor B cleavage, Coomassie-stained SDS-PAGE, with C3(H2O) (purified plasma factor B): either MASP-3 or pro-factor D are able to mediate factor B cleavage, as long as C3 is present
